Tests used:
[1] = biological target: endogenous β2-syntrophin (rat) (UniProt P01322); experiment: cell-based or functional assay
[2] = biological target: the molecule itself; experiment: co-immunoprecipitation from INS-1E cells
35S-ICA512601-979 = biological target: T1, 35S-ICA512601-979 (Homo sapiens (Human), UniProt Q16849 601-979, 35S-methionine labelled); experiment: GST pull-down, SDS-PAGE and autoradiography
T1 construct: also called cytoplasmic portion of ICA512
T1 sequence: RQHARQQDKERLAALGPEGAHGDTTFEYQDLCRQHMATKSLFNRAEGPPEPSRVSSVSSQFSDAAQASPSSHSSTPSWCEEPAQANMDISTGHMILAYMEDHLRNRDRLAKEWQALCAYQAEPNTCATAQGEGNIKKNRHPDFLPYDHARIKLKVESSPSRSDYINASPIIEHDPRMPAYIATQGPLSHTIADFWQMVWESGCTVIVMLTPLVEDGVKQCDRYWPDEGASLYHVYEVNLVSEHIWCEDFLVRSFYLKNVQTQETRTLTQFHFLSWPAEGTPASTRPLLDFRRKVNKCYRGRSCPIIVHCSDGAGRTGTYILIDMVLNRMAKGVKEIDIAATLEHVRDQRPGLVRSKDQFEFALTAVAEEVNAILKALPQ

35S-ICA512700-979 = biological target: T2, 35S-ICA512700-979 (Homo sapiens (Human), UniProt Q16849 700-979, 35S-methionine labelled); experiment: GST pull-down, SDS-PAGE and autoradiography
T2 construct: In vitro transcribed and translated from pET28a; also called PTP portion of ICA512
T2 sequence: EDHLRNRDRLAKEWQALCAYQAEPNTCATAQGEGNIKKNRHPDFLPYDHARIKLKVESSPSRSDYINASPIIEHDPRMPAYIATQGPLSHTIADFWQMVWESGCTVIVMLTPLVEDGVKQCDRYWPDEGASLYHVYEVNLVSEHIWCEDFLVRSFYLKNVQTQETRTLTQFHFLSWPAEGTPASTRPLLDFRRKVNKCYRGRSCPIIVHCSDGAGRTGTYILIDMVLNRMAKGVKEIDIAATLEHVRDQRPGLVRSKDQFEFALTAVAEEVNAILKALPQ

35S-Luciferase = biological target: T3, 35S-Luciferase (firefly, UniProt P08659 1-550 = luciferase, 35S-methionine labelled); experiment: GST pull-down, SDS-PAGE and autoradiography
T3 construct: Control protein in the pull-down assays; also called firefly luciferase; control protein
T3 sequence (P08659 whole entry): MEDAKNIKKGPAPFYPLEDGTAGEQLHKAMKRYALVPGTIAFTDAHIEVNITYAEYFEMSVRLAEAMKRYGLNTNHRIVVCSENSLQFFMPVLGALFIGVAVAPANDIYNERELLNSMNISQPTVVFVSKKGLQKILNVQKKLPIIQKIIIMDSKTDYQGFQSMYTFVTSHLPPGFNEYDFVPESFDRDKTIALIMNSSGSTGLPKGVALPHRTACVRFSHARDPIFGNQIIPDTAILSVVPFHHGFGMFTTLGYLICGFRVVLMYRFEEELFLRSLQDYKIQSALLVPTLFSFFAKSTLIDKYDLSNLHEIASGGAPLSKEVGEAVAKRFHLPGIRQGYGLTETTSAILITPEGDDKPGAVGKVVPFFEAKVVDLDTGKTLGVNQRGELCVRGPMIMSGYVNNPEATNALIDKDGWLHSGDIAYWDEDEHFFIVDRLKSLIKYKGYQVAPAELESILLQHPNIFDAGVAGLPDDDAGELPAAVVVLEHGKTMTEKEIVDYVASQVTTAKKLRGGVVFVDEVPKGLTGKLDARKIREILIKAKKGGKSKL

Molecule “ICA512-TMF (from UniProt Q63259 41-983) (receptor)” has an insulin stimulation index after knockdown of β2-syntrophin, compared to control cells [1] of 34%.

B1: pro-ICA512 (receptor, rat, UniProt Q63259 41-983, looked up)
chain: ISAHGCLFDRRLCSHLEVCIQDGLFGQCQAGVGQARPLLQVTSPVLQRLQGVLRQLMSQGLSWHDDLTQYVISQEMERIPRLRPPEPHPRDRSGSVPRRAGPAGELLSQGNPTGSSPAVQGLSRPPGDGNGAGVGSPLSSLQAELLPPLLEHLLMPPQPPHPSLTYEPALLQPYLFQQFGSRDGSRGSESASGVVGHLAKAEDPVLFSRSLSKAILGTHSGHSFGDLTGPSPAQLFQDSGLLYMAQELPVPGRARAPRLPEEGGSSRAEDSSEGHEEEVLGGHGEKSPPQAVQADVSLQRLAAVLAGYGVELRQLTPEQLSTLLTLLQLLPKGTGRHLGGAVNGGADVKKTIEEQMQRGDTADARPPTPLLPGHPTASSTSIKVRQVLSPGFPEPPKTSSPLGISAVLLEKKSPLGQSQPTVVGQPSARPSAEEYGYIVTDQKPLSLVAGVKLLEILAEHVHMTSGSFINISVVGPAVTFRIRHNEQNLSLADVTQQAGLVKSELEAQTGLQILQTGVGQREESAAVLPRQAHGISPMRSLLLTLVALAGVAGLLVALAVALCMRHHSKQRDKERLAALGPEGAHGDTTFEYQDLCRQHMATKSLFNRAEGQPEPSRVSSVSSQFSDAAQASPSSHSSTPSWCEEPAQANMDISTGHMILAYMEDHLRNRDRLAKEWQALCAYQAEPNTCATAQGEGNIKKNRHPDFLPYDHARIKLKVESSPSRSDYINASPIIEHDPRMPAYIATQGPLSHTIADFWQMVWESGCTVIVMLTPLVEDGVKQCDRYWPDEGSSLYHVYEVNLVSEHIWCEDFLVRSFYLKNVQTQETRTLTQFHFLSWPAEGTPASTRPLLDFRRKVNKCYRGRSCPIIVHCSDGAGRTGTYILIDMVLNRMAKGVKEIDIAATLEHVRDQRPGLVRSKDQFEFALTAVAEEVNAILKALPQ
notes: In cells expressing ICA512-GFP, one partner may be the GFP-tagged form; also called pro-form of ICA512, glycoprotein of 110 kDa
B1: no binding [2].

B2: GST-ICA512800-979 (other)
chain: ESGCTVIVMLTPLVEDGVKQCDRYWPDEGASLYHVYEVNLVSEHIWCEDFLVRSFYLKNVQTQETRTLTQFHFLSWPAEGTPASTRPLLDFRRKVNKCYRGRSCPIIVHCSDGAGRTGTYILIDMVLNRMAKGVKEIDIAATLEHVRDQRPGLVRSKDQFEFALTAVAEEVNAILKALPQ
notes: Bacterially expressed, on glutathione sepharose beads; not shown: glutathione S-transferase (GST) fusion partner
B2: no binding (35S-ICA512601-979); no binding (35S-ICA512700-979).

B3: GST-ICA512601-979 (other)
chain: RQHARQQDKERLAALGPEGAHGDTTFEYQDLCRQHMATKSLFNRAEGPPEPSRVSSVSSQFSDAAQASPSSHSSTPSWCEEPAQANMDISTGHMILAYMEDHLRNRDRLAKEWQALCAYQAEPNTCATAQGEGNIKKNRHPDFLPYDHARIKLKVESSPSRSDYINASPIIEHDPRMPAYIATQGPLSHTIADFWQMVWESGCTVIVMLTPLVEDGVKQCDRYWPDEGASLYHVYEVNLVSEHIWCEDFLVRSFYLKNVQTQETRTLTQFHFLSWPAEGTPASTRPLLDFRRKVNKCYRGRSCPIIVHCSDGAGRTGTYILIDMVLNRMAKGVKEIDIAATLEHVRDQRPGLVRSKDQFEFALTAVAEEVNAILKALPQ
notes: Bacterially expressed, coupled to glutathione sepharose beads (1 µg); The construct is only cited (Ort et al., 2000); not shown: glutathione S-transferase (GST) fusion partner
B3: no binding (35S-Luciferase).

— EP1987837A1 (Technische Universität Dresden Medizinische Fakultät Carl …, dated 2008)
